# Assay results published in patent US20180265572A1 (Bristol-Myers Squibb, published 2018).
# Residue numbers refer to the chain shown, from its start. Numbers in names are those of the source. Where “and” joins values, the source holds several entries; their conditions need not be identical. Equal entries are not always repeated.
# B1: V2B-Fn-385A08-Cys (designed binder)
# single chain: MGVSDVPRDLEVVAATPTSLLISWRHPHFPTRYYRITYGETGGNSPVQEFTVPLQPPTATISGLKPGVDYTITVYAVTDGRNGRLLSIPISINYRTEIDKPSTSTSTVSDVPRDLEVVAATPTSLLISWSARLKVARYYRITYGETGGNSPVQEFTVPKNVYTATISGLKPGVDYTITVYAVTRFRDYQPISINYRTEIDKPCQHHHHHH
# B2: V2B-Fn-385A08 (designed binder)
# single chain: B1 single chain with C203S
# notes: also called V2B-Fn-385A08 (Ser tail)
# B3: 385A08-GS5-V2B (designed binder)
# single chain: MGVSDVPRDLEVVAATPTSLLISWSARLKVARYYRITYGETGGNSPVQEFTVPKNVYTATISGLKPGVDYTITVYAVTRFRDYQPISINYRTEIDKGSGSGSGSGSVSDVPRDLEVVAATPTSLLISWRHPHFPTRYYRITYGETGGNSPVQEFTVPLQPPTATISGLKPGVDYTITVYAVTDGRNGRLLSIPISINYRTEIDKPSQHHHHHH
# notes: also called 385A08-GS5-V2B (Ser tail)
# B4: 385A08-GS10 (SEQ ID NO: 22)-V2B, his-tagged (designed binder)
# chain: MGVSDVPRDLEVVAATPTSLLISWSARLKVARYYRITYGETGGNSPVQEFTVPKNVYTATISGLKPGVDYTITVYAVTRFRDYQPISINYRTEIDKGSGSGSGSGSGSGSGSGSGSVSDVPRDLEVVAATPTSLLISWRHPHFPTRYYRITYGETGGNSPVQEFTVPLQPPTATISGLKPGVDYTITVYAVTDGRNGRLLSIPISINYRTEIDKPSQHHHHHH
# notes: also called 385A08-GS10-V2B; 385A08-GS10-V2B (Ser tail)
# B5: V2B-GS10 (SEQ ID NO: 22)-385A08, his-tagged (designed binder)
# chain: MGVSDVPRDLEVVAATPTSLLISWRHPHFPTRYYRITYGETGGNSPVQEFTVPLQPPTATISGLKPGVDYTITVYAVTDGRNGRLLSIPISINYRTEIDKGSGSGSGSGSGSGSGSGSGSVSDVPRDLEVVAATPTSLLISWSARLKVARYYRITYGETGGNSPVQEFTVPKNVYTATISGLKPGVDYTITVYAVTRFRDYQPISINYRTEIDKPSQHHHHHH
# notes: also called V2B-GS10-385A08; V2B-GS10-385A08 (Ser tail)
# B6: pegylated, non-his-tag version of 385A08-Fn-V2B-cys (designed binder)
# chain: MGVSDVPRDLEVVAATPTSLLISWSARLKVARYYRITYGETGGNSPVQEFTVPKNVYTATISGLKPGVDYTITVYAVTRFRDYQPISINYRTEIDKPSTSTSTVSDVPRDLEVVAATPTSLLISWRHPHFPTRYYRITYGETGGNSPVQEFTVPLQPPTATISGLKPGVDYTITVYAVTDGRNGRLLSIPISINYRTEIDKPCQ
# modifications: PEG on the single cysteine at position 203
# notes: also called 385A08-Fn-V2B-cys (pegylated, no his-tag); 385A08-Fn-V2B-Cys (non-his tagged)
# B7: Peg-V2Bshort (designed binder)
# chain: GEVVAATPTSLLISWRHPHFPTRYYRITYGETGGNSPVQEFTVPLQPPTATISGLKPGVDYTITVYAVTDGRNGRLLSIPISINYRTEIDKPCQ
# modifications: pegylated at position 93 (single cysteine); the tracer form is labelled with IRDye 800CW
# B8: AT580-PEG20-AT580 (designed binder)
# chain: MGVSDVPRDLEVVAATPTSLLISWSARLKVARYYRITYGETGGNSPVQEFTVPKNVYTATISGLKPGVDYTITVYAVTRFRDYQPISINYRTEIDKPCQ
# modifications: the two chains are joined by a 20 kDa PEG at position 98 (cysteine) of each; labelled with IRDye 800CW in the competition assay
# B9: V2B-GS5-385A08 (designed binder)
# single chain: MGVSDVPRDLEVVAATPTSLLISWRHPHFPTRYYRITYGETGGNSPVQEFTVPLQPPTATISGLKPGVDYTITVYAVTDGRNGRLLSIPISINYRTEIDKGSGSGSGSGSVSDVPRDLEVVAATPTSLLISWSARLKVARYYRITYGETGGNSPVQEFTVPKNVYTATISGLKPGVDYTITVYAVTRFRDYQPISINYRTEIDKPSQHHHHHH
# notes: also called V2B-GS5-385A08 (Ser tail)
# B10: 385A08-Fn-V2B-Cys (designed binder)
# single chain: MGVSDVPRDLEVVAATPTSLLISWSARLKVARYYRITYGETGGNSPVQEFTVPKNVYTATISGLKPGVDYTITVYAVTRFRDYQPISINYRTEIDKPSTSTSTVSDVPRDLEVVAATPTSLLISWRHPHFPTRYYRITYGETGGNSPVQEFTVPLQPPTATISGLKPGVDYTITVYAVTDGRNGRLLSIPISINYRTEIDKPCQHHHHHH
# How the values were obtained:
# [1] = target: VEGFR2 fusion protein on Ba/F3 cells (extracellular domain of hVEGFR2 and intracellular domain of hEpoR) (human, UniProt P35968 20-764; P19235 274-508, limits assumed); test: cell-based or functional assay
# human IGF-IR on cells = human IGF-IR on cells (human, UniProt P08069 31-1367); test: cell-based or functional assay
# human IGF-IR-Fc fusion [2] = target: T1, human IGF-IR-Fc fusion (human, UniProt P08069 31-932); test: SPR (Biacore), IGF-IR-Fc captured on Protein A/G, HTPP purified binder in solution, n=1, KD approximate
# T1 construct: range 1-932; If it counts on the precursor, it includes the signal peptide; also called IGF1R-Fc; not shown: hinge and constant regions of human IgG
# human IGF-IR-Fc fusion [3] = target: T1, human IGF-IR-Fc fusion; test: SPR (Biacore), captured IGF-IR-Fc, midscale material
# human IGF-IR-Fc fusion [4] = target: T1, human IGF-IR-Fc fusion; test: SPR (Biacore), captured IGF1R-Fc, midscale purified binder
# VEGFR2-Fc (R&D Systems) [5] = target: T2, VEGFR2-Fc (R&D Systems) (UniProt P35968 20-764); test: SPR (Biacore), immobilised VEGFR2-Fc, midscale material
# T2 construct: Bought reagent; not shown: Fc part of the bought fusion; not described
# VEGFR2-Fc (R&D Systems) [6] = target: T2, VEGFR2-Fc (R&D Systems); test: SPR (Biacore), immobilized VEGFR2-Fc, midscale purified binder
# [7] = target: VEGFR-2 in nude mice (in vivo) (UniProt P35918 20-1345, limits assumed); test: cell-based or functional assay
# [8] = target: VEGFR-2 in cynomolgus monkeys (in vivo); test: cell-based or functional assay
# VEGFR2-Fc (R&D Systems) [9] = target: T2, VEGFR2-Fc (R&D Systems); test: SPR (Biacore), VEGFR2-Fc immobilized directly on the chip
# Procedure: (§1) Affinity data was also measured from midscale and large scale material, for the pegylated version of the tandem construct 385A08-Fn-V2B-cys (SEQ ID NO: 9, with and without his tag). The specific materials and methods for these calculations are described below.
# (§2) An alternative method is to capture the IGF—IR-Fc on Protein A. This method was used for calculating the affinity and kinetics of certain versions of the construct 385A08-Fn-V2B-cys (both pegylated and non-pegylated and with or without his tag) from midscale and large scale materials. Specifically, IGF—IR-Fc was captured on Protein A immobilized on a Biacore CM5 sensor chip by amine coupling. VEGFR2-Fc was immobilized directly on a CM5 chip by amine coupling. The affinity and kinetic analysis involved the capture of IGF—IR-Fc on Protein A followed by injection of the tandem adnectin in solution over IGF—IR-Fc and VEGFR2-Fc. The analytical surface was regenerated between samples with glycine pH 1.5. Sensorgrams were obtained at each concentration and were evaluated using Biacore T100 evaluation software to determine the rate constants kₐ (kₒₙ) and kd (koff).
# The functionality of the V2B domain was assessed by evaluating a concentration series of the midscale and large scale purification of the tandem construct 385A08-Fn-V2B (pegylated, and non-pegylated versions, his-tag and non-his-tag versions) vs. VEGFR2-Fc that was directly immobilized on a CM5 chip surface (GE, Piscataway, N.J.). VEGFR2-Fc (R&D Systems, MN) was diluted to 12 ug/mL in 50 mM Acetate pH 5.0 for an immobilization level of ˜1300 RU. Varying concentrations of 385A08-Fn-V2B in the solution phase were monitored for association (2 minutes) and dissociation (10 minutes) kinetics at a flow rate of 50 uL/min. Two 30 second injections of 50 mM glycine pH 1.7 were used to regenerate the surface.
# human IGF-IR-Fc fusion [10] = target: T1, human IGF-IR-Fc fusion; test: SPR (Biacore), IGF1R-Fc captured on Protein A
# Procedure: as §1, §2
# [11] = target: T3, VEGFR-2 (KDR) on transfected cells (UniProt P35968 20-1356, limits assumed); test: competitive blocking assay on 293:KDR cells; competitor 200 nM IRDye 800CW-labelled Peg-V2Bshort
# T3 construct: whole, on cells; also called Flk-1
# Procedure: Similarly, the pegylated, his-tagged construct 385A08-Fn-V2B-cys was able to block the interaction of a mono-specific ¹⁰Fn3-based VEGFR-2 binder (Peg-V2Bshort, SEQ ID NO: 28) with VEGFR-2 present on 293:KDR cells. […] In particular, in a Ba/F3 assay (described below), the IC₅₀ for the monomeric, non-pegylated VEGFR2 binder V2Bshort (SEQ ID NO: 28) is approximately 0.1-3 nM whereas the IC₅₀ for the monomeric, non-pegylated VEGFR2 binder having SEQ ID NO: 44 (e.g., with an N-terminal extension) is approximately 8-13 nM. […] Both the R⁺ and 293:KDR cell based competitive blocking assays are described in detail in the materials and methods section below.
# 293:KDR (Sibtech, Brookfield, Conn.) were plated in 96 well plates at a concentration of 25,000 cells per well in DMEM (Invitrogen, Carlsbad, Calif.) containing 10% fetal bovine serum (Hyclone, Logan, Utah). The following day, cells were washed twice in serum free DMEM containing 0.1% BSA (Invitrogen, Carlsbad, Calif.). After the washes, the cells were incubated at 4° C. for 10 minutes in binding buffer (serum free DMEM+0.1% BSA) containing increasing concentrations of VEGFR-2 antagonists or controls. Typical controls included the mono-specific ¹⁰Fn3-based VEGFR2 binder (Peg-V2Bshort, SEQ ID NO: 28) (positive control) or the mono-specific ¹⁰Fn3-based IGF-IR binder (AT580-PEG40, SEQ ID NO: 27) (negative control). […]
binder,measurement,setting,value
B1,"IC50, inhibition of VEGF-A dependent proliferation of Ba/F3 cells",[1],0.8 nM
same,"IC50, inhibition of proliferation of Rh41 cells (n=1)",human IGF-IR on cells,6 nM
B2,Kd,human IGF-IR-Fc fusion [2],~0.2 nM
same,"IC50, inhibition of VEGF-A dependent proliferation of Ba/F3 cells",[1],2.2 nM
B3,Kd,human IGF-IR-Fc fusion [2],~0.3 nM
same,"IC50, inhibition of VEGF-A dependent proliferation of Ba/F3 cells",[1],1 nM
same,"IC50, inhibition of proliferation of Rh41 cells (n=1)",human IGF-IR on cells,40 nM
B4,Kd,human IGF-IR-Fc fusion [2],~0.3 nM
same,Kd,human IGF-IR-Fc fusion [3],0.04 nM
same,koff,human IGF-IR-Fc fusion [4],0.000308 s⁻¹
same,kon,human IGF-IR-Fc fusion [4],7.72e+06 M⁻¹ s⁻¹
same,"IC50, inhibition of VEGF-A dependent proliferation of Ba/F3 cells",[1],1.2 nM
same,"IC50, inhibition of proliferation of Rh41 cells (n=1)",human IGF-IR on cells,27 nM
same,Kd,VEGFR2-Fc (R&D Systems) [5],0.5 nM
same,koff,VEGFR2-Fc (R&D Systems) [6],0.000193 s⁻¹
same,kon,VEGFR2-Fc (R&D Systems) [6],414000 M⁻¹ s⁻¹
B5,Kd,human IGF-IR-Fc fusion [2],~0.2 nM
same,Kd,human IGF-IR-Fc fusion [3],0.05 nM
same,koff,human IGF-IR-Fc fusion [4],0.000204 s⁻¹
same,kon,human IGF-IR-Fc fusion [4],4.18e+06 M⁻¹ s⁻¹
same,"IC50, inhibition of VEGF-A dependent proliferation of Ba/F3 cells",[1],1.9 nM
same,Kd,VEGFR2-Fc (R&D Systems) [5],0.6 nM
same,koff,VEGFR2-Fc (R&D Systems) [6],0.000222 s⁻¹
same,kon,VEGFR2-Fc (R&D Systems) [6],382000 M⁻¹ s⁻¹
B6,"plasma IC50, indirect-response PD model, nude mice bearing the A673 tumor",[7],7000 nM
same,"plasma IC50 (grand mean), PK/PD model, monkeys",[8],159 nM
same,Kd,VEGFR2-Fc (R&D Systems) [9],17.2 nM and 5.8 nM
same,koff,VEGFR2-Fc (R&D Systems) [9],0.000115 s⁻¹ and 7.49e-05 s⁻¹
same,kon,VEGFR2-Fc (R&D Systems) [9],6670 M⁻¹ s⁻¹ and 13000 M⁻¹ s⁻¹
same,Kd,human IGF-IR-Fc fusion [10],0.982 nM and 1.04 nM
same,koff,human IGF-IR-Fc fusion [10],0.00027 s⁻¹ and 0.000253 s⁻¹
same,kon,human IGF-IR-Fc fusion [10],275000 M⁻¹ s⁻¹ and 244000 M⁻¹ s⁻¹
B7,IC50,[11],~20 nM
same,"IC50, inhibition of VEGF-A dependent proliferation of Ba/F3 cells",[1],10 nM
same,"IC50, inhibition of proliferation of Rh41 cells (n=1)",human IGF-IR on cells,> 50 nM
B8,"IC50, inhibition of proliferation of Rh41 cells (n=1)",human IGF-IR on cells,0.07 nM
B9,Kd,human IGF-IR-Fc fusion [2],~0.2 nM
same,"IC50, inhibition of VEGF-A dependent proliferation of Ba/F3 cells",[1],2 nM
B10,"IC50, inhibition of VEGF-A dependent proliferation of Ba/F3 cells",[1],1.3 nM
same,"IC50, inhibition of proliferation of Rh41 cells (n=1)",human IGF-IR on cells,33 nM
